Laboratory results as given in US20250388641A1 (CUGENE, published 2025).

Key:
[1] = molecular target: T1, huIL-15Rβ-6His (human, UniProt P14784 27-240, limits assumed); assay: ELISA binding EC50 relative to wild type P-0153
T1 construct: Coated on the ELISA plate; also called hull-15Rβ-6His; IL-15Rβ subunit
T1 sequence: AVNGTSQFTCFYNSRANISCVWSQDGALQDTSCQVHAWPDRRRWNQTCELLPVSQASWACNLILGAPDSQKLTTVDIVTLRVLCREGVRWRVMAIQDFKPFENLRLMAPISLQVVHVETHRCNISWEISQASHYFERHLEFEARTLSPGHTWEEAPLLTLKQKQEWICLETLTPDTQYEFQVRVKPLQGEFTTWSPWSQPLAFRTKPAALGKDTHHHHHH
Experimental: (§1) The binding activity was tested in ELISA assay. Briefly, Nunc Maxisorp (ThermoFisher) plates were coated overnight at 4° C. with hull-15Rβ-6His at 1 ug/well (100 μl/well) in bicarbonate buffer pH 9.4 (ThermoFisher). After washing 3 times with PBS/0.05% Tween20, plates were incubated with SuperBlock (300 μl/well) at room temperature for 2 hrs. to block nonspecific binding. After washing, IL-15 compounds each at 3-fold serial dilutions with blocking buffer were added to the plates (100 μl/well) and incubated at room temperature for 1 hr. After washing, the Fc fusions were detected by 1 hr. incubation at room temperature with a goat anti-human IgG Fc secondary antibody conjugated with horseradish peroxidase (HRP) at 1:5000 dilution in blocking buffer (ThermoFisher) (100 μl/well). After washing, TMB substrate (ThermoFisher) was added (100 μl/well). Plates were sealed and incubated 5-20 min at room temperature in dark. Reaction was stopped by adding 2N sulfuric acid (Ricca Chemical) (50 μL/well) and absorbance was read at 450-590 nm.

[2] = molecular target: T1, huIL-15Rβ-6His; assay: ELISA, huIL-15Rβ-6His coated on plate, anti-human IgG Fc-HRP detection
Experimental: as §1

[3] = molecular target: T1, huIL-15Rβ-6His; assay: ELISA binding EC50 relative to wild type (3.9 nM)
Experimental: as §1

[4] = molecular target: T1, huIL-15Rβ-6His; assay: ELISA binding to IL-15Rβ, relative to wild type (repeats Table 3)
Experimental: as §1

B1: P-0178, IL-15/IL-15Rα heterodimeric Fc fusion, IL-15i3 (… insertion after N95) (Fc fusion)
chain 1: DKTHTCPPCPAPEAAGAPSVFLFPPKPKDTLMISRTPEVTCVVVDVSHEDPEVKFNWYVDGVEVHNAKTKPREEQYNSTYRVVSVLTVLHQDWLNGKEYKCKVSNKALPAPIEKTISKAKGQPREPQVYTLPPCREEMTKNQVSLSCAVKGFYPSDIAVEWESNGQPENNYKTTPPVLDSDGSFFLVSKLTVDKSRWQQGNVFSCSVMHEALHNHYTQKSLSLSPGEPKSSDKTHTSPPSPNWVNVISDLKKIEDLIQSMHIDATLYTESDVHPSCKVTAMKCFLLELQVISLESGDASIHDTVENLIILANNSLSSNGNVTESGCKECEELEEKNGSSGSSGGSIKEFLQSFVHIVQMFINTS
chain 2: DKTHTCPPCPAPEAAGAPSVFLFPPKPKDTLMISRTPEVTCVVVDVSHEDPEVKFNWYVDGVEVHNAKTKPREEQYNSTYRVVSVLTVLHQDWLNGKEYKCKVSNKALPAPIEKTISKAKGQPREPQVCTLPPSREEMTKNQVSLWCLVKGFYPSDIAVEWESNGQPENNYKTTPPVLDSDGSFFLYSKLTVDKSRWQQGNVFSCSVMHEALHNHYTQKSLSLSPGEPKSSDKTHTSPPSPITCPPPMSVEHADIWVKSYSLYSRERYICNSGFKRKAGTSSLTECVLNKATNVAHWTTPSLKCIRDPALVHQRPAPP
Fold change [1]: 36 fold | EC50 [2]: 23.1 nM

B2: P-0181, IL-15/IL-15Rα heterodimeric Fc fusion, IL-15m3 (Q108S, D30T, V31Y, H31E) (Fc fusion)
chain 1: DKTHTCPPCPAPEAAGAPSVFLFPPKPKDTLMISRTPEVTCVVVDVSHEDPEVKFNWYVDGVEVHNAKTKPREEQYNSTYRVVSVLTVLHQDWLNGKEYKCKVSNKALPAPIEKTISKAKGQPREPQVYTLPPCREEMTKNQVSLSCAVKGFYPSDIAVEWESNGQPENNYKTTPPVLDSDGSFFLVSKLTVDKSRWQQGNVFSCSVMHEALHNHYTQKSLSLSPGEPKSSDKTHTSPPSPNWVNVISDLKKIEDLIQSMHIDATLYTESTYEPSCKVTAMKCFLLELQVISLESGDASIHDTVENLIILANNSLSSNGNVTESGCKECEELEEKNIKEFLQSFVHIVSMFINTS
chain 2: DKTHTCPPCPAPEAAGAPSVFLFPPKPKDTLMISRTPEVTCVVVDVSHEDPEVKFNWYVDGVEVHNAKTKPREEQYNSTYRVVSVLTVLHQDWLNGKEYKCKVSNKALPAPIEKTISKAKGQPREPQVCTLPPSREEMTKNQVSLWCLVKGFYPSDIAVEWESNGQPENNYKTTPPVLDSDGSFFLYSKLTVDKSRWQQGNVFSCSVMHEALHNHYTQKSLSLSPGEPKSSDKTHTSPPSPITCPPPMSVEHADIWVKSYSLYSRERYICNSGFKRKAGTSSLTECVLNKATNVAHWTTPSLKCIRDPALVHQRPAPP
Fold change [3]: 1.4 fold | Fold change in binding EC50 [4]: 1.4 fold | EC50 [2]: 5.57 nM
